# Source: article PMC10754921
# Biological target: FMC63-scFv (VL - Whitlow linker - VH, C-terminal His8 tag) (mouse)
# Assay: SEC-MALS; 25 µg injected, Superdex 200 Increase 10/300 GL, PBS with additional 200 mM NaCl, pH 7.4, 25 °C
substance,measurement,value
"FMC63-scFv (VL - Whitlow linker - VH, C-terminal His8 tag)",percent dimers,20%
same,stoichiometry N,2
